Laboratory results: patent US6429304B1, “Nucleic acids encoding a katanin p60 subunit” (The Regents of the University of California, priority 1998, dated 2002)

B1: p60/p80: co-expressed recombinant katanin p60/p80 heterodimer complex from baculovirus-infected insect cells (protein)
chain 1: HHHHHHMSVDEICENTKMGREYALLGNYETSLVYYQGVLQQIQKLLTSVHEPQRKHQWQTIRQELSQEYEHVKNITKTLNGFKSEPAAPEPAPNHRAAPFSHHQHAAKPAAAEPARDPDVWPPPTPVDHRPSPPYQRAARKDPPRRSEPSKPANRAPGNDRGGRGPSDRRGDARSGGGGRGGARGSDKDKNRGGKSDKDKKAPSGEEGDEKKFDPAGYDKDLVENLERDIVQRNPNVHWADIAGLTEAKRLLEEAVVLPLWMPDYFKGIRRPWKGVLMVGPPGTGKTMLAKAVATECGTTFFNVSSASLTSKYHGESEKLVRLLFEMARFYAPSTIFIDEIDSICSKRGTGSEHEASRRVKSELLIQMDGVSGPSAGEESSKMVMVLAATNFPWDIDEALRRRLEKRIYIPLPEIDGREQLLRINLKEVPLADDIDLKSIAEKMDGYSGADITNVCRDASMMAMRRRIQGLRPEEIRHIPKEELNQPSTPADFLLALQKVSKSVGKEDLVKYMAWMEEFGSV
chain 2: HHHHHHMATKRAWKLQELVAHSSNVNCLALGPMSGRVMVTGGEDKKVNLWAVGKQNCIISLSGHTSPVDSVKFNSSEELVVAGSQSGTMKIYDLEPAKIVRTLTGHRNSIRCMDFHPFGEFVASGSTDTNVKLWDVRRKGCIYTYKGHSDQVNMIKFSPDGKWLVTASEDTTIKLWDLTMGKLFQEFKNHTGGVTGIEFHPNEFLLASGSSDRTVQFWDLETFQLVSSTSPGASAVRSISFHPDGSYLFCSSQDMLHAFGWEPIRCFDTFSVGWGKVADTVIASTQLIGASFNATNVSVYVADLSRMSTTGIAQEPQSQPSKTPSGGAEEVPSKPLTASGRKNFVRERPHTTSSKQRQPDVKSEPERQSPTQDEGVKDDDATDIKDPDSYAKIFSPKTRVDHSPERNAQPFPAPLDVPGAQEPEPFKHPPKPAAAAAVAPVSRAPAPSASDWQPAQANPAPNRVPAATKPVPAQEVAPSRKPDPISTIIPSDRNKPANLDMDAFLPPAHAQQAPRVNAPASRKQSDSERIEGLRKGHDSMCQVLSSRHRNLDVVRAIWTAGDAKTSVESVVNMKDQAILVDILNIMLLKKSLWNLDMCVVVLPRLKELLSSKYENYVHTSCACLKLILKNFTSLFNQNIKCPPSGIDITREERYNKCSKCYSYLIATRGYVEEKQHVSGKLGSSFRELHLLLDQLE
B2: Katanin: heterodimer of 60 kDa and 80 kDa subunits, microtubule-severing ATPase from sea urchin eggs (protein)
chain 1: B1 chain 1
chain 2: B1 chain 2

Columns and labels:
[1] = tested on: Taxol-stabilized, rhodamine-labeled microtubules; assay: Microscope-based microtubule severing assay; format: biochemical
Procedure: FIGS. 5A, 5B, and 5C illustrate the activities of recombinant katanin subunits. […] Taxol-stabilized, rhodamine-labeled microtubules were adsorbed onto the surface of a microscope perfusion chamber, and then recombinant katanin subunits were introduced. The time elapsed after perfusing p60/p80 (0.1 μM), p60 (0.1 μM), or p80 (0.5 μM) is shown. The recombinant co-expressed p60/p80 and p60, but not p80, can sever and disassemble microtubules. Scale bar, 10 μm.
Microscope-based severing assays were performed using previously published procedures (McNally and Vale (1993) Cell, 75: 419-429), except that microtubules were immobilized by first perfusing flow cells with a bacterially expressed kinesin mutant that binds strongly to microtubules but is unable to hydrolyze ATP (K560, G234A mutant; R. Vale and E. Taylor, unpublished results). Assays were performed in 20 mM Hepes (pH 7.5), 2 mM MgCl2, 1 mM ATP with an oxygen scavenger system consisting of glucose oxidase (220 μg/ml), catalase (36 μg/ml), glucose (22.5 mM), and 2-mercaptoethanol (71.5 mM). Images were captured using a cooled, slow-scan CCD (Photometerics) and processed using Adobe Photoshop.

[2] = ATPase assay (modified malachite green method); format: biochemical
Procedure: ATPase activity was measured by a modified malachite green method (Kodama et al. (1986) J. Biochem. 99: 1465-1472). ATPase reactions of 50-100 μl were carried out in a buffer previously used for measuring the ATPase activity of native katanin [20 mM K-HEPES pH 8.0, 25 mM potassium glutamate 2 mM MgCl2, 10% glycerol (v/v), 0.02% Triton X-100 (w/v), 1 mg/ml BSA] (McNally and Vale (1993) Cell, 75: 419-429), except that soybean trypsin inhibitor (SBTI) was replaced by BSA as a carrier protein because SBTI increased background phosphate contamination. An ATP regenerating system, consisting of 0.5-1.0 mM phosphoenol pyruvate and 2 units of pyruvate kinase, was included to minimize the inhibition by ADP observed previously for native katanin (McNally and Vale (1993) Cell, 75: 419-429). Microtubules were prepared from bovine brain tubulin (Hyman et al. (1990) Meth. Enzymol. 196: 303-319; and Williams and Lee (1982) Meth Enzymol. 85B: 376-385). After assembly, microtubules were sedimented (230,000×g; 10 min), resuspended in ATPase buffer lacking BSA, and the polymers were resuspended by repeated passage through a 27 gauge needle. Microtubule concentration was determined by measuring the absorbance at 275 nm in 6 M guanidine HCl by using a molecular mass of 110 kDa and an extinction coefficient of 1.03 ml mg^−1 cm^−1 (Hackney (1988) Proc. Natl. Acad Sci. USA, 85: 6314-6318). ATPase reactions were carried out at room temperature, and were initiated by addition of katanin.

| Molecule | time until microtubules were completely disassembled ([1]; 0.1 μM protein, 1 mM ATP) [min] | microtubule severing (in words) ([1]; p60, p60/p80 0.1 μM, p80 0.5 μM (5-fold higher)) | ATP turnover rate ([2]; basal, without microtubules) [ATP/sec/heterodimer] | stimulation of ATPase activity by microtubules ([2]; maximal stimulation) [fold] | microtubule concentration at peak stimulation of ATP turnover ([2]; non-hyperbolic, decreases at higher microtubule concentrations) [μM tubulin] | basal ATPase activity ([2]; basal) [ATP/katanin/sec] | maximal microtubule-stimulated ATPase rate ([2]; microtubule-stimulated) [ATP/katanin/sec] |
| --- | --- | --- | --- | --- | --- | --- | --- |
| B1 | 5 | severed microtubules | 0.3 | ~10 | ~2 | – | – |
| B2 | – | – | – | – | – | 0.3 | 3 |
